This is an account of results in publication PMC3374797, “Intrinsically Unstructured Domain 3 of Hepatitis C Virus NS5A Forms a “Fuzzy Complex” with VAPB-MSP Domain Which Carries ALS-Causing Mutations” (PLoS ONE, 2012).

pKd: −log10 of the molar value. “Also recorded” adds a separate entry of the source.

Experiment [1] concerns the target T1, VAPB-MSP(1–125) T46I mutant (Homo sapiens, UniProt O95292, T46I).
T1 construct: chemical shifts of VAPB-MSP(1–125) T46I mutant in the presence of unlabeled NS5A-D3C; His tag (N, cleaved yes); made in house; host or cells: Escherichia coli BL21 (DE3) Star
Nature of the experiment: NMR HSQC titration of 15N-VAPB-MSP(1-125) T46I mutant. The experiment is classed as binding. The protocol: (§1) NMR samples were prepared in 10 mM phosphate buffer in the presence of 10 mM DTT (pH 6.8). All NMR data were collected at 25°C on an 800-MHz Bruker Avance spectrometer equipped with a shielded cryoprobe as described before [70]–[73]. For HSQC characterization, samples were prepared at a protein concentration of 100 µM. For sequential assignments of NS5A-D3, triple-resonance NMR experiments including HNCACB and CBCA(CO)NH were acquired on a double-labeled sample at a protein concentration of ∼300 µM while for sequential assignments of NS5A-D3A, three-dimensional heteronuclear NMR experiments including HSQC-TOCSY and HSQC-NOESY were acquired on a ^15N-labeled sample at a protein concentration of ∼500 µM. NMR data were processed with NMRpipe and analyzed with NMRview.
(§2) For NMR HSQC characterization of the binding interactions between NS5A and VAPB fragments/domains, two-dimensional ^1H-^15N HSQC spectra of the ^15N-labeled proteins were acquired at a protein concentration of 50 µM in the absence or presence of the unlabeled binding partners at different molar ratios. By superimposing the HSQC spectra at different molar ratios, the shifted or disappeared HSQC peaks could be identified and further assigned to the corresponding residues as we previously described, [67]–[70]. The degree of perturbation was reflected by an integrated chemical shift difference (CSD) calculated by the formula ((Δ^1H)^2+(Δ^15N)^2/5)^1/2 [73]. The CSD tracings were fitted by using the one binding site model to obtain residue-specific dissociation constants (Kd); which are summarized in Table 1.

The target of experiment [2] is T2, VAPB-MSP(1–125) (Homo sapiens, UniProt O95292). Nature of the experiment: NMR HSQC titration of 15N-VAPB-MSP(1-125) with NS5A fragments, Kd fitting. The class given is binding. On the set-up: His tag (N, cleaved yes); made in house; host or cells: Escherichia coli BL21 (DE3) Star. The protocol:
as §1, §2

For experiment [3], the system named is VAPB-MSP T46I mutant. The note with it: ref [51]; cited from earlier work.
Experiment [4] has as its target T2, VAPB-MSP(1–125). The experiment is described as follows: NMR competition of EphA4 LBD with D3B for VAPB-MSP(1-125). The experiment is classed as binding. More on the design: His tag (N, cleaved yes); made in house; host or cells: Escherichia coli BL21 (DE3) Star. As to conditions: MSP saturated by D3B at 1:4 (MSP/D3B); EphA4 at 1:10 (MSP:EphA4). The protocol: NMR titration and docking results all reveal that the D3B peptide is able to occupy the MSP surface regions which are also critical for binding to EphA4 receptor as we previously characterized. To confirm this, we first saturated the VAPB-MSP(1–125) by D3B at a molar ratio of 1∶4 (MSP/D3B). Subsequently the EphA4 ligand-binding domain (LBD) was gradually titrated into this sample.
NMR samples were prepared in 10 mM phosphate buffer in the presence of 10 mM DTT (pH 6.8). All NMR data were collected at 25°C on an 800-MHz Bruker Avance spectrometer equipped with a shielded cryoprobe as described before [70]–[73]. For HSQC characterization, samples were prepared at a protein concentration of 100 µM. […] NMR data were processed with NMRpipe and analyzed with NMRview.
For NMR HSQC characterization of the binding interactions between NS5A and VAPB fragments/domains, two-dimensional ^1H-^15N HSQC spectra of the ^15N-labeled proteins were acquired at a protein concentration of 50 µM in the absence or presence of the unlabeled binding partners at different molar ratios. […] The degree of perturbation was reflected by an integrated chemical shift difference (CSD) calculated by the formula ((Δ^1H)^2+(Δ^15N)^2/5)^1/2 [73]. […]

Experiment [5] addresses T2, VAPB-MSP(1–125). On the set-up: His tag (N, cleaved yes); made in house; host or cells: Escherichia coli BL21 (DE3) Star. The note with it: molar ratio 1:2; ref [51]; cited from earlier work. The text has this:
NMR titration and docking results all reveal that the D3B peptide is able to occupy the MSP surface regions which are also critical for binding to EphA4 receptor as we previously characterized. […] Subsequently the EphA4 ligand-binding domain (LBD) was gradually titrated into this sample.

In experiment [6] the target is T2, VAPB-MSP(1–125). Nature of the experiment: NMR titration.

T2 sequence (O95292 1-125): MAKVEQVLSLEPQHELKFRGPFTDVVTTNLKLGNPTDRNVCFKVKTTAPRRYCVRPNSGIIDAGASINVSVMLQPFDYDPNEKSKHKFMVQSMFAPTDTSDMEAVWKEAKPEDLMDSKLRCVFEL
T1 sequence (O95292 1-125 T46I): as the sequence (O95292 1-125) above, with T46I counted along it

Take `CSCC[C@H](NC(=O)[C@H](CO)NC(=O)[C@H](CO)NC(=O)[C@H](Cc1ccc(O)cc1)NC(=O)[C@H](CO)NC(=O)[C@H](CCC(=O)O)NC(=O)[C@H](C)NC(=O)[C@H](CC(=O)O)NC(=O)[C@H](CO)NC(=O)CN)C(=O)N1CCC[C@H]1C(=O)N1CCC[C@H]1C(=O)N[C@@H](CC(C)C)C(=O)N[C@@H](CCC(=O)O)C(=O)NCC(=O)N[C@@H](CCC(=O)O)C(=O)N1CCC[C@H]1C(=O)NCC(=O)N[C@@H](CC(=O)O)C(=O)N1CCC[C@H]1C(=O)N[C@@H](CC(=O)O)C(=O)N[C@@H](CC(C)C)C(=O)N[C@@H](CO)C(=O)N[C@@H](CC(=O)O)C(=O)NCC(=O)N[C@@H](CO)C(=O)N[C@@H](Cc1c[nH]c2ccccc12)C(=O)N[C@@H](CO)C(=O)N[C@H](C(=O)N[C@H](C(=O)N[C@@H](CO)C(=O)N[C@@H](CCC(=O)O)C(=O)N[C@@H](CCC(=O)O)C(=O)N[C@@H](C)C(=O)N[C@@H](CO)C(=O)N[C@@H](CCC(=O)O)C(=O)N[C@@H](CC(=O)O)C(=O)N[C@H](C(=O)N[C@H](C(=O)O)C(C)C)C(C)C)C(C)C)[C@@H](C)O` [D3B]: the “Interaction (Yes/No) with VAPB-MSP(1-125) T46I” value in experiment [1] (15N-VAPB-MSP(1-125) T46I) is “Yes/Weak”. Further, in experiment [1] (molar ratio up to 1:6 (T46I/D3B)), the “HSQC perturbation of T46I mutant” value is “only a small set of T46I HSQC peaks were found to shift slightly of very small amplitude”. Also, the “Kd for T46I mutant, statement in words” value in experiment [1] (shift tracings highly unsaturated, up to 1:6 (T46I/D3B)) is given as “impossible to fit out the CSD tracings to obtain Kd values”. Besides, the “Interaction (Yes/No) with VAPB-MSP(1-125)” value in experiment [2] (15N-VAPB-MSP(1-125), unlabeled NS5A fragment) is given as “Yes”. Also, in experiment [2] (molar ratio up to 1:4 (MSP/D3 peptide)), the “MSP residues whose HSQC peaks undergo gradual but significant shifts” value was “Gln6, Met89-Val90-Gln91, Asp116, Leu119 and Val122”. Further, the “Binding affinity to VAPB-MSP, in words” value in experiment [2] (relative to D3 (and D3A, D3B)) was “retains almost the same binding affinity and mode as the 89-residue D3”. The “HSQC perturbation of VAPB-MSP(1-125)” value in experiment [2] (words, 50 µM 15N-labelled protein) was “almost the same shifting pattern and similar amplitude”.
Consider “EphA4 LBD: 181-residue EphA4 ligand binding domain”, for which the “Effect of T46I mutation on binding to EphA4” value in experiment [3] was “reduced affinity to EphA4; also recorded: considerably reduces the binding affinity to EphA4”. For the same compound, the “HSQC perturbation of MSP by EphA4 LBD with pre-existence of D3B” value in experiment [4] was “only several MSP peaks were observed to shift slightly”. Moreover, in experiment [5], the “HSQC perturbation of MSP by EphA4 LBD without D3B” value is “started to trigger peak shift and disappearance of the MSP residues”.
Broadly, the pKd is −log10 of the Kd, conventionally taken in molar units. In the case of NS5A-D3(359–447) (domain or fragment), in experiment [6], the pKd was 5.35, the residue-specific Kd (Asp116) is 6.2 µM, the residue-specific Kd (Gln6) was found to be 6.8 µM and the residue-specific Kd (Gln91) was 2.4 µM. Besides, in experiment [6], the residue-specific Kd (Leu119) was determined as 4.5 µM, the residue-specific Kd (Met89) was 5.2 µM, the residue-specific Kd (Val90) was determined as 4.6 µM and the residue-specific Kd (Val122) was found to be 1.7 µM.
Take NS5A-D3A(394–447) (domain or fragment): in experiment [6], the pKd is 5.10, the residue-specific Kd (Asp116) was found to be 10.2 µM, the residue-specific Kd (Gln6) came out at 11.5 µM and the residue-specific Kd (Gln91) was 7.1 µM. Moreover, in experiment [6], the residue-specific Kd (Leu119) was 7.7 µM, the residue-specific Kd (Met89) worked out at 9.9 µM, the residue-specific Kd (Val90) was found to be 7.2 µM and the residue-specific Kd (Val122) was 2.4 µM.
